Reference: paper PMC5290487

Molecular target: MK2 (mitogen-activated protein kinase-activated protein kinase 2), endogenous in COS-1 cells
Assay: co-immunoprecipitation (IP of endogenous MK2, western blot for PDE4A5), quantified
Conditions: COS-1 cell lysates; parent: est. 100; read off a plot

Row | Substance | percent of parent (% binding of MK2 in Wt IP)
1 | PDE4A5 (long PDE4A isoform), wild type (from UniProt P54748-1) W664A; Y665A; H666A; S667A | 80
2 | PDE4A5 (long PDE4A isoform), wild type (from UniProt P54748-1) F141A; L142A; Y143A | 2
3 | PDE4A5 (long PDE4A isoform), wild type (from UniProt P54748-1) T698A; L699A; E700A; E701A | 67
4 | PDE4A5 (long PDE4A isoform), wild type (from UniProt P54748-1) F693A; Q694A; F695A | 63
5 | PDE4A5 (long PDE4A isoform), wild type (from UniProt P54748-1) I654A; L655A; D656A | 88

Molecular target: MK2 (mitogen-activated protein kinase-activated protein kinase 2), endogenous in COS-1 cells
Assay: as above
Conditions: COS-1 cell lysates; parent: est. 100; read off a plot
Remark: another data set of the same source

Row | Substance | percent of parent (% binding of MK2 in Wt IP)
6 | PDE4A5 (long PDE4A isoform), wild type (from UniProt P54748-1) Y143A | 79
7 | PDE4A5 (long PDE4A isoform), wild type (from UniProt P54748-1) F141A; L142A; Y143A | 1.5
8 | PDE4A5 (long PDE4A isoform), wild type (from UniProt P54748-1) F141A | 58
9 | PDE4A5 (long PDE4A isoform), wild type (from UniProt P54748-1) L142A | 73
